Holding throughout (conditions): both partners purified
Test [1] deals with T1, reduced recombinant GapC1 (cytosolic NAD-dependent glyceraldehyde-3-phosphate dehydrogenase) from A. thaliana (A. thaliana, UniProt P25858 1-338).
T1 construct: GapC1, cytosolic NAD-dependent glyceraldehyde-3-phosphate dehydrogenase, Arabidopsis thaliana, At3g04120; Used as analyte on VDAC3 (pre-treated with 2 mM DTT) and immobilised via NHS in buffer with 2 mM DTT for Trx-h3; also called reduced GapC1; GAPDH; source: desalted before use; pre-treated with 2 mM DTT
T1 sequence (P25858 whole entry): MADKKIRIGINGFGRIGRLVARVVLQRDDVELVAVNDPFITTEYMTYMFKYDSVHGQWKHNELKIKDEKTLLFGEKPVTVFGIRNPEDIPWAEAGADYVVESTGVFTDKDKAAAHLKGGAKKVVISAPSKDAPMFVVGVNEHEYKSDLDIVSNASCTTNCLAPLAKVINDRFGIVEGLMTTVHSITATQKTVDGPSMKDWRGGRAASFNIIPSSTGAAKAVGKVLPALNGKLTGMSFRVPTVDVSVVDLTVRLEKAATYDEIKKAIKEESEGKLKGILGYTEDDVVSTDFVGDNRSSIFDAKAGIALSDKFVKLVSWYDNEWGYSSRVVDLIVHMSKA
In words: reflectance interferometry (RIf); VDAC3 in a polymer-supported DOPC membrane on the chip; GapC1 pre-treated with 2 mM DTT (reduced) injected at different amounts in a flow chamber; rinsing with HBS buffer; association and dissociation phases fitted separately; protein-free lipid membrane as negative control.

The target of test [2] is T2, oxidized recombinant GapC1 from A. thaliana (pretreated with 0.5 mM H2O2 + 0.5 mM GSH) (A. thaliana, UniProt P25858 1-338, oxidized by pretreatment with 0.5 mM H2O2 + 0.5 mM GSH; modified residues not stated for this sample).
T2 construct: GapC1, cytosolic NAD-dependent glyceraldehyde-3-phosphate dehydrogenase, Arabidopsis thaliana, At3g04120; Same recombinant protein as m1, oxidised in vitro; also called oxidized GapC1; source: desalted before use; pre-treated with 0.5 mM H2O2 + 0.5 mM GSH
T2 sequence (P25858 whole entry): as above
The experiment in a line: reflectance interferometry (RIf); VDAC3 in a polymer-supported DOPC membrane on the chip; GapC1 pre-treated with 0.5 mM H2O2 + 0.5 mM GSH (oxidized) injected at different amounts in a flow chamber; rinsing with HBS buffer; association and dissociation phases fitted separately; protein-free lipid membrane as negative control.

Test [3] deals with T1, reduced recombinant GapC1 (cytosolic …). The experiment in a line: reflectance interferometry (RIf); GapC1 (or the control mCitrine) immobilised via NHS on a PEG surface; Trx-h3 injected at different concentrations; 20 mM HBS-buffer (100 mM NaCl, 0.01% Triton X-100, pH 7.5) with 2 mM DTT; KD from equilibrium binding signals by Scatchard plot.

B1: recombinant voltage-dependent anion-selective channel VDAC3 from A. thaliana, reconstituted in a lipid bilayer (natural protein, UniProt Q9SMX3 1-274, looked up)
chain: MVKGPGLYTEIGKKARDLLYRDYQGDQKFSVTTYSSTGVAITTTGTNKGSLFLGDVATQVKNNNFTADVKVSTDSSLLTTLTFDEPAPGLKVIVQAKLPDHKSGKAEVQYFHDYAGISTSVGFTATPIVNFSGVVGTNGLSLGTDVAYNTESGNFKHFNAGFNFTKDDLTASLILNDKGEKLNASYYQIVSPSTVVGAEISHNFTTKENAITVGTQHALDPLTTVKARVNNAGVANALIQHEWRPKSFFTVSGEVDSKAIDKSAKVGIALALKP
notes: VDAC3, mitochondrial outer membrane voltage-dependent anion-selective channel 3, Arabidopsis thaliana; cDNA cloned into pCold I with SacI and XbaI; Protein:lipid 1:1000 in DOPC; formed a polymer-supported membrane on the RIf chip; The tag is inferred from the vector; also called AtVDAC3
A word on the Kd: it is the equilibrium constant for the complex coming apart. Regarding B1, the Kd in test [1] is 236 nM; in test [2] it was 556 nM.

B2: recombinant thioredoxin Trx-h3 from A. thaliana (natural protein, UniProt Q42403 1-118, looked up)
chain: MAAEGEVIACHTVEDWTEKLKAANESKKLIVIDFTATWCPPCRFIAPVFADLAKKHLDVVFFKVDVDELNTVAEEFKVQAMPTFIFMKEGEIKETVVGAAKEEIIANLEKHKTVVAAA
notes: Thioredoxin h3 (Trx-h3), Arabidopsis thaliana
In the case of B2, in test [3], the Kd was determined as 40000 nM.

(Values after publication PMC6127989, “Cytosolic GAPDH as a redox-dependent regulator of energy metabolism” (BMC Plant Biology, 2018).)
